Values joined by “and” are separate entries in the source; they are usually repeats but may differ in a detail not shown here. Identical values can stand only once.
Legend:
[1] = target: Recombinant HopQ1 with a C-terminal 6 × His epitope (Pseudomonas savastanoi pv. phaseolicola 1448A (former Pseudomonas syringae pv. phaseolicola 1448A)) (UniProt Q48BD8); assay: SEC-MALS; native (non-reducing) conditions; Superdex 200 10/300GL, 100 mM Tris-HCl, 150 mM NaCl, pH 8.0, 4 °C; 0.4 mg protein per run
[2] = target: Recombinant HopQ1 with a C-terminal 6 × His epitope (Pseudomonas savastanoi pv. phaseolicola 1448A (former Pseudomonas syringae pv. phaseolicola 1448A)) (UniProt Q48BD8); assay: SEC; gel filtration on Superdex 200, reducing conditions with chelating agent (1 mM EDTA)
[3] = target: HopQ1 fused to ECFP or EYFP, expressed in N. benthamiana (Pseudomonas savastanoi pv. phaseolicola 1448A (former Pseudomonas syringae pv. phaseolicola 1448A)) (UniProt Q48BD8); assay: FRET or BRET; FLIM-FRET in nuclei of N. benthamiana leaf cells; donor fused to ECFP, acceptor fused to EYFP, transiently co-expressed; eight to ten nuclei per combination
[4] = target: the molecule itself; assay: SEC; gel filtration on Superdex 200 of the calcium-site mutant; 'all the conditions tested' (not listed for the mutant)
[5] = target: the molecule itself; assay: SEC; gel filtration on Superdex 200, reducing conditions with chelating agent (1 mM EDTA)

## Recombinant HopQ1 with a C-terminal 6 × His epitope (from UniProt Q48BD8 1-447) (natural protein)
[1]
  stoichiometry N: 2 and 3
[2]
  stoichiometry N: 2

## Nt14-3-3a-ECFP (natural protein)
[3]
  FRET efficiency: 14.2%

B1: HopQ1-D107A_D108A (recombinant, 6 × His) (natural protein)
chain: MHRPITAGHTTSRLILDQLKQISRTPSESSVQSALSQQASMSSPVLERSKSAPALLTAAQRTMLAQVGACNSHLTSDENMAINELRLHKPRLPKDTWFFTDPNKDPAAVVTYTLGKQLQAEGFVHITDVVATLGDAEVRSQRAEMAKGVFNKLGLHDVHVSRGRDYAMNSLQSKEHAKFLLEGHALRAGPGEIHRDSLQDMSRRLARAPHGVGIVVIAGMSDINALITTCPDMVRERVDDITIMGGVEPLKDADGFVQPDARAYNNATDMDAARSLYRKAQELGIPLRIVTKEAAYKTAVSPSFYEGIAGSGHPVGHYLRDVQKSALKGLWEGIQAGLLPGLDDSWFFRTFMPNAQIEAAQLDKNKESSFEDIWPKVTKLNLYDPLTLLASVPGAAKLLFKPKAIHTEGFGVVEQVGPDDVTHPEKAKLLMSALAKSALVQSTVAPD
notes: HopQ1 of Pseudomonas savastanoi pv. phaseolicola 1448A, GenBank AAZ37975.1, with D107A and D108A; source: E. coli BL21 Rosetta, purified
[4]
  stoichiometry N: 2

B2: RihA, a pyrimidine-specific ribonucleoside hydrolase from E. coli K-12 (enzyme, UniProt P41409 1-311, looked up)
chain: MALPILLDCDPGHDDAIAIVLALASPELDVKAITSSAGNQTPEKTLRNVLRMLTLLNRTDIPVAGGAVKPLMRELIIADNVHGESGLDGPALPEPTFAPQNCTAVELMAKTLRESAEPVTIVSTGPQTNVALLLNSHPELHSKIARIVIMGGAMGLGNWTPAAEFNIYVDPEAAEIVFQSGIPVVMAGLDVTHKAQIHVEDTERFRAIGNPVSTIVAELLDFFLEYHKDEKWGFVGAPLHDPCTIAWLLKPELFTSVERWVGVETQGKYTQGMTVVDYYYLTGNKPNATVMVDVDRQGFVDLLADRLKFYA
notes: RihA (also known as YbeK), pyrimidine-specific ribonucleoside hydrolase of E. coli K-12; also called YbeK; source: E. coli BL21 Rosetta, purified
[5]
  stoichiometry N: 4
